Source: publication PMC10365314, “Noncanonical contribution of microglial transcription factor NR4A1 to post-stroke recovery through TNF mRNA destabilization”

Biological target: His-GST-NR4A1 (Mus musculus, UniProt P12813 1-601)
Assay: EMSA; glutaraldehyde 0.2% added after binding; 10 mM HEPES pH 7.6, 50 mM KCl, 1 mM EDTA, 0.05% Triton X-100, 5% glycerol, 1 mM DTT, 40 U/ml RNasin; REMSA: 2 nM probe, room temperature 30 min; pull-down: 50 pmol probe, 250 ug extract, 4 C 3 h
Conditions: protein: recombinant; tags: His-GST; label: 5' biotin; single strand

Chain of His-GST-NR4A1 (P12813 whole entry): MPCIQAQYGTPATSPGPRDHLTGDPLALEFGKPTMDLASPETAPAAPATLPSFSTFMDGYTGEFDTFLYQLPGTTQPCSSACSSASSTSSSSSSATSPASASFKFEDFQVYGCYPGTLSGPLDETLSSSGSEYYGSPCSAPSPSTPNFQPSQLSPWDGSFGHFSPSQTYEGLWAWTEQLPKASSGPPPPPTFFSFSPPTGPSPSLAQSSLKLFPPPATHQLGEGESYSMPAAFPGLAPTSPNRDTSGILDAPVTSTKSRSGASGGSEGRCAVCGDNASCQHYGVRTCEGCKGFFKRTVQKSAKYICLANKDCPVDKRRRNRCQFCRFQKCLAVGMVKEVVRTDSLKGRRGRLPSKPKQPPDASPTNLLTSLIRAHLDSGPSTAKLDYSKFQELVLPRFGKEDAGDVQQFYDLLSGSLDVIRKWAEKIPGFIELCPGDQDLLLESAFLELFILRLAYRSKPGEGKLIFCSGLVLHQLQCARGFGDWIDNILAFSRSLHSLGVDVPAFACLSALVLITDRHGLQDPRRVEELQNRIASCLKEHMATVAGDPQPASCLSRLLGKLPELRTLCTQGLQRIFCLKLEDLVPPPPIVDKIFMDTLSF

CGUCUCGGACUCGGACUGCU (ssRNA, m6A at positions 9 and 15 (as printed: CGUCUCGG(m6A)CUCGG(m6A)CUGCU)) [GGACU probe, m6A]
binding result: binds
